According to publication PMC3828522:

Molecular target: biotin-YY1 spacer peptide (human) (UniProt P25490)
Assay: SPR

Chain of biotin-YY1 spacer peptide (human) (P25490 199-228): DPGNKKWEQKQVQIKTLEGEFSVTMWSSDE
Chain of SFMBT2 4MBT domain, human (domain or fragment) (Q5VUG0 whole entry, the tested form may be a part): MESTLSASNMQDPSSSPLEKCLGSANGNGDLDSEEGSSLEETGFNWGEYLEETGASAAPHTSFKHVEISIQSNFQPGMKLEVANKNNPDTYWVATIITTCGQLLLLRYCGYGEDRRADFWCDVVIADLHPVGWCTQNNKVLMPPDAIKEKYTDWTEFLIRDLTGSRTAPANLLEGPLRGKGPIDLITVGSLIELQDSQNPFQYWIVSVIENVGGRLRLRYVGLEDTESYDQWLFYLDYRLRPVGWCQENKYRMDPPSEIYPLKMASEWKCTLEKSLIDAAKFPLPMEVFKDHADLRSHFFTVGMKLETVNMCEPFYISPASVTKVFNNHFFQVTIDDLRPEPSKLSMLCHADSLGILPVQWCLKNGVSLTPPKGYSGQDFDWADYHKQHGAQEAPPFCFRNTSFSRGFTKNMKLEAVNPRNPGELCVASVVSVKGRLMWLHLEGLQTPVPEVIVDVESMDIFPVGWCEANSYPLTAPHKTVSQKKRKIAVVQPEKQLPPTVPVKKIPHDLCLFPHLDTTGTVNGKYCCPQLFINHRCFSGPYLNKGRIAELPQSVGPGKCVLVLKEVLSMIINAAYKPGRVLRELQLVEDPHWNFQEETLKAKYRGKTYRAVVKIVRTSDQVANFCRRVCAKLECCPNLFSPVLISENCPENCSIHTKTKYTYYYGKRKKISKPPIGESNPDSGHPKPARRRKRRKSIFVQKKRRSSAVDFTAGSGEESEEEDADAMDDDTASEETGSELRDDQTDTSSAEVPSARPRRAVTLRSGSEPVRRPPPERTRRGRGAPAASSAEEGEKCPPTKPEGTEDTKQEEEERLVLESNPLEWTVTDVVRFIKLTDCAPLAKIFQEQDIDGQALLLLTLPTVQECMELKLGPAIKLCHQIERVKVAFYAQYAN

fold lower affinity than L3MBTL2 and MBTD1: 2 fold | fold weaker affinity than the Drosophila complex: 50 fold
Substance: SFMBT2 4MBT domain, human (domain or fragment)
